From patent US20210380679A1 (INHIBRX BIOSCIENCES, published 2021) come the findings set out here.

Numbering of substitutions follows the chain as printed.

The EC50 (read off the curve) is the concentration at which the effect is half-maximal. Read a high EC50 (read off the curve) as a less potent agent.

For the experiment, the target named is T1, human DLL3 (Delta-like ligand 3) (human, UniProt Q9NYJ7 27-618).
T1 construct: endogenous on SHP-77 cells; also called cell-surface DLL3
T1 sequence: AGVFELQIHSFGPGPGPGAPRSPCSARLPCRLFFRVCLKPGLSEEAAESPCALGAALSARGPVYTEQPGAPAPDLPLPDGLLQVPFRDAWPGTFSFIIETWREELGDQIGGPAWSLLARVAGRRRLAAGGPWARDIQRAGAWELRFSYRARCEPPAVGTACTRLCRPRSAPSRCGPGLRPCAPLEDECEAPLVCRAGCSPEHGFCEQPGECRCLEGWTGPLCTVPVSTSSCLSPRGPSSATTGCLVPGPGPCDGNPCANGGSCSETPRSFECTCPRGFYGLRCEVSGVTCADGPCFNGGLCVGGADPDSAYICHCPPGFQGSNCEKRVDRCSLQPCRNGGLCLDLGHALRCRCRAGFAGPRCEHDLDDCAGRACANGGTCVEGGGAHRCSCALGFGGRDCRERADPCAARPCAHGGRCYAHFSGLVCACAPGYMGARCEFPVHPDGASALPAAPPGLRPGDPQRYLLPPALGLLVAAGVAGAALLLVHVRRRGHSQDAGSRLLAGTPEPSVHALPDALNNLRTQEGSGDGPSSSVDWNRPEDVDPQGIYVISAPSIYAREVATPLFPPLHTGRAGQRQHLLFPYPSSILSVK
The experiment can be described thus: flow cytometry, sdAb-Fc titrated on SHP-77 cells (DLL3 positive), APC anti-human Fc secondary. The method, then: FIGS. 2A-L set forth a series of graphs depicting the ability of sdAb and humanized variants thereof targeting DLL3 to bind cell surface DLL3.
Specificity and relative affinity were assessed for purified sdAb-Fcs on DLL3-expressing cells. […] A titration series of the fusion protein was incubated with the DLL3-expressing cell lines (approximately 2.5×10⁴ to 5×10⁴ cells/well) for 30 minutes at 4 degrees Celsius in FACS Buffer (PBS 1% BSA, 0.1% NaN₃ pH 7.4) in 96-well plates. Following three wash steps in FACS buffer, an APC-conjugated anti-human Fcγ specific secondary antibody (Jackson ImmunoResearch) was added and incubated for 30 minutes at 4 degrees Celsius. Following three additional wash steps in FACS buffer bound antibody was detected via flow cytometry (IQue Intellicyte).
A general note: A flow cytometer gives signals particle by particle.

B1: 3C5 (Fc fusion)
VHH: QVQLVQSGGGLVQAGGSLRLSCAASGSIFSINAMGWYRQPPGKQRELVAGFTGDGSTKYADSVKGRFTISRDNAKNTVYLQMNSLKPEDTAVYYCAADVQLLNSDYEFYWGQGTQVTVKP
notes: tested as VHH-human Fc; Fc not specified
On to B1, for which the binding result is on record as “binds”.

B2: hz10D9v7 (Fc fusion)
VHH: EVQLVESGGGEVQPGGSLRLSCAASGSIFSINAMGWYRQAPGKQRELVAGFTGDTNTIYAESVKGRFTISRDNAKNTVYLQMSSLRAEDTAVYYCAADVQLFSRDYEFYWGQGTLVTVKP
notes: as for B1
In the case of B2, the binding result is on record as “binds”.

B3: hz3C5v3 (Fc fusion)
VHH: B2 VHH with N56S, I58K, F102L, S103N, R104S
notes: as for B1
Consider B3, for which the binding result was “binds”.

B4: hz3G3v1 (Fc fusion)
VHH: EVQLVESGGGEVQPGGSLRLSCAASGSIFSINAMGWYRQAPGKQRELVAGFTGDGMTKYAESVKGRFTISRDNAKNTVYLQMSSLRAEDTAVYYCAADVFTDRDHVDWYWGQGTLVTVKP
notes: as for B1
As to B4, the binding result was “binds”.

B5: hz3C5v4 (Fc fusion)
VHH: B2 VHH with D54E, T55G, N56S, I58K, F102L, S103N, R104S
notes: as for B1
Consider B5, for which the binding result was “binds”.

B6: hz3C5v8 (Fc fusion)
VHH: B2 VHH with T55G, N56S, I58K, F102L, S103N, R104T
notes: as for B1
Regarding B6, the binding result was “binds”.

B7: hz10D9v4 (Fc fusion)
VHH: B2 VHH with F29L, L47M
notes: as for B1
With B7, the binding result is “binds”.

B8: hz10D9v2 (Fc fusion)
VHH: B2 VHH with F29L, T55G
notes: as for B1
Consider B8, for which the binding result is on record as “binds”.

B9: hz10D9v5 (Fc fusion)
VHH: B2 VHH with F29L
notes: as for B1
Consider B9, for which the binding result is “binds”.

B10: hz10D9v1 (Fc fusion)
VHH: B2 VHH with F29L, L47M, T55G
notes: as for B1
Regarding B10, the binding result is on record as “binds”.

B11: hz10D9v3 (Fc fusion)
VHH: B2 VHH with F29L, L47M, D54E, T55G
notes: as for B1
Consider B11, for which the binding result was “binds”.

B12: hz10D9v6 (Fc fusion)
VHH: B2 VHH with F29L, A40P
notes: as for B1
Consider B12, for which the binding result is “binds”.

B13: hz3C5v1 (Fc fusion)
VHH: B2 VHH with T55G, N56S, I58K, F102L, S103N, R104S
notes: as for B1
Take B13: the binding result is “binds”.

B14: hz3C5v2 (Fc fusion)
VHH: B2 VHH with A40P, T55G, N56S, I58K, F102L, S103N, R104S
notes: as for B1
As to B14, the “EC50 (read off the curve)” value was roughly 0.7 nM.

B15: hz3C5v5 (Fc fusion)
VHH: B2 VHH with T55G, N56S, I58K, F102L, R104S
notes: as for B1
Turning to B15, the binding result is recorded as “binds”.

B16: hz3C5v6 (Fc fusion)
VHH: B2 VHH with T55G, N56S, I58K, F102L, S103T, R104S
notes: as for B1
Take B16: the binding result is reported as “binds”.

B17: hz3C5v7 (Fc fusion)
VHH: B2 VHH with T55G, N56S, I58K, F102L, S103Q, R104S
notes: as for B1
Turning to B17, the binding result is “binds”.

B18: L3G3 (Fc fusion)
VHH: QVQLVQSGGGLVQAGGSLRLSCAASGSIFSINAMGWYREAPGKQRELVAGFTGDGMTKYAESVKGRFTFSRDNAKNTVYLQMNSLKPEDTGVYYCAADVFTDRDHVDWYWGQGTQVTVKP
notes: as for B1
Take B18: the binding result was “binds”.

B19: hz3G3v4 (Fc fusion)
VHH: B4 VHH with A91G
notes: as for B1
As to B19, the binding result is “binds”.

B20: hz3G3v3 (Fc fusion)
VHH: B4 VHH with I69F
notes: as for B1
As to B20, the binding result is reported as “binds”.

B21: hz3G3v2 (Fc fusion)
VHH: B4 VHH with Q39E
notes: as for B1
For B21, the binding result is “binds”.

B22: hz6C5v1 (Fc fusion)
VHH: EVQLVESGGGEVQPGGSLRLSCAASEITFSDKTVGWYRQAPGKQRVLVAVISNVDSTNYAESVKGRFTISRDNAKNTLYLQMSSLRAEDTAVYYCHARDFENEYWGQGTLVTVKP
notes: as for B1
In the case of B22, the 50% effective concentration (EC50 (read off the curve)) was roughly 2 nM.

B23: hz6C5v5 (Fc fusion)
VHH: B22 VHH with D55E, L78V
notes: as for B1
Regarding B23, the binding result is reported as “binds”.

B24: hz6F1v2 (Fc fusion)
VHH: B22 VHH with T28I, L78V, H96Y, N102S
notes: as for B1
With B24, the binding result was “binds”.

B25: hz6C5v2 (Fc fusion)
VHH: B22 VHH with L78V
notes: as for B1
For B25, the binding result is “binds”.

B26: hz6C5v3 (Fc fusion)
VHH: B22 VHH with E61H, L78V
notes: as for B1
Take B26: the binding result is “binds”.

B27: hz6F1v1 (Fc fusion)
VHH: B22 VHH with T28I, H96Y, N102S
notes: as for B1
On to B27, for which the “EC50 (read off the curve)” value was roughly 0.5 nM.

B28: hz6C5v4 (Fc fusion)
VHH: B22 VHH with A23G, L78V
notes: as for B1
Regarding B28, the binding result was “binds”.

B29: hz6F1v3 (Fc fusion)
VHH: B22 VHH with T28I, E61Q, L78V, H96Y, N102S
notes: as for B1
For the molecule B29, the binding result was “binds”.

B30: hz5A7v1 (Fc fusion)
VHH: EVQLVESGGGEVQPGGSLRLSCAASGSDFSINAIGWYRQAPGKQRDMVAGFTGDGVTTYAESVKGRFTISRDNAKNTVYLQMSSLRAEDTAVYYCAADVKIGGDYEWFWGQGTLVTVKP
notes: as for B1
Regarding B30, the binding result is listed as “binds”.

B31: L5A7 (Fc fusion)
VHH: B30 VHH with E6Q, E11L, E61D, S83N, R86K, A87P, L114Q
notes: as for B1
As for B31, the binding result is recorded as “binds”.

B32: hz5A7v5 (Fc fusion)
VHH: B30 VHH with M47W
notes: as for B1
With B32, the binding result is on record as “binds”.

B33: hz5A7v4 (Fc fusion)
VHH: B30 VHH with M47L
notes: as for B1
For the molecule B33, the binding result is “binds”.

B34: hz5A7v2 (Fc fusion)
VHH: B30 VHH with G55T
notes: as for B1
B34: the binding result was “binds”.

B35: hz5A7v6 (Fc fusion)
VHH: B30 VHH with A40P
notes: as for B1
Turning to B35, the binding result is listed as “binds”.

B36: hz5A7v3 (Fc fusion)
VHH: B30 VHH with D54E
notes: as for B1
In the case of B36, the binding result is listed as “binds”.
